Source: patent US20210189359A1 (UNIVERSITY OF KENTUCKY RESEARCH FOUNDATION, published 2021)
Residue numbers refer to the chain shown, from its start. Names may count otherwise. One block for each binder: values may come before it.

Molecular target: T1, human FcRn (human, UniProt P55899 24-297; P61769 21-119, limits assumed)
T1 construct: the construct, its source and whether b2m was present are not described; also called neonatal Fc receptor
Assay: in vitro binding to human FcRn at pH 6; method not described

Kd: 43 nM
B1: CocH-LAF6 (Fc fusion)
chain: EDDIIIATKNGKVRGMNLTVFGGTVTAFLGIPYAQPPLGRLRFKKPQSLTKWSDIWNATKYANSCCQNIDQSFPGFHGSEMWNPNTDLSEDCLYLNVWIPAPKPKNATVLIWIYGGGFQTGTSSLHVYDGKFLARVERVIVVSMNYRVGALGFLALPGNPEAPGNMGLFDQQLALQWVQKNIAAFGGNPKSVTLFGESSGAASVSLHLLSPGSHSLFTRAILQSGSANAPWAVTSLYEARNRTLNLAKLTGCSRENETEIIKCLRNKDPQEILLNEAFVVPYGTPLGVNFGPTVDGDFLTDMPDILLELGQFKKTQILVGVNKDEGTWFLVGGAPGFSKDNNSIITRKEFQEGLKIFFPGVSEFGKESILFHYTDWVDDQRPENYREALGDVVGDYNFICPALEFTKKFSEWGNNAFFYYFEHRSSKLPWPEWMGVMHGYEIEFVFGLPLERRDNYTKAEEILSRSIVKRWANFAKYGNPNETQNNSTSWPVFKSTEQKYLTLNTESTRIMTKLRAQQCRFWTSFFPKVVEPKSCDKTHTCPPCPAPELLGGPSVFLFPPKPKDTLYITREPEVTCVVVDVSHEDPEVKFNWYVDGVEVHNAKTKPREEQYNSTYRVVSVLTVLHQDWLNGKEYKCKVSNKALPAPIEKTISKAKGQPREPQVYTLPPSREEMTKNQVSLTCLVKGFYPSDIAVEWESNGQPENNYKTTPPVLDSDGSFFLYSKLTVDKSRWQQGNVFSCSVMHEALHNHYTQKSLSLSPGK
notes: Direct fusion without a linker; also called CocH3-LAF6; CocH3(529)-Fc(M6)

Kd: 43 nM
B2: CocH-LAF8 (Fc fusion)
chain: B1 chain with P285Q
notes: Direct fusion without a linker; also called CocH2-LAF8; A199S/F227A/P285Q/S287G/A328W/Y332G/A530V/M567Y/S569T/T571E/D671E/L673M mutant of BChE(529)-Fc

Kd: 43 nM
B3: CocH-LAF7 (Fc fusion)
chain: B1 chain with P285A
notes: Direct fusion without a linker; also called CocHl-LAF7; CocH1-LAF7
